US6323001A, “Increasing the trehalose content of organisms by transforming them with combinations of the structural genes for trehalose synthase” (BTG International Ltd., priority 1994, dated 2001)

Columns and labels:
Type in all cases: biochemical, baker's yeast
[1] = biological target: T1, Tre6Pase activity of the 99 kDa polypeptide (Saccharomyces cerevisiae, UniProt P31688); assay: Tre6Pase activity of isolated 99 kDa polypeptide
T1 construct: the 99 kDa polypeptide isolated from intact trehalose synthase is a specific trehalose-6-phosphatase; made in house; host or cells: commercial baker's yeast (native; isolated from intact trehalose synthase on phosphocellulose)
Procedure: Intact trehalose synthase has also been fractionated on phosphocellulose in the absence of Triton, and with elution by a simple linear gradient from 0 to 0.6 M NaCl. […] This activity differed from the Tre6Pase activity of intact trehalose synthase in that the ratio of activities at 25 mM phosphate and 50 mM Hepes was between 1.5 and 3 in different experiments (cf, this ratio is 5 to 6 for intact trehalose synthase). Furthermore, during storage of the isolated 99 kDa polypeptide at 0° C., the Tre6Pase activity at 25 mM phosphate decreased and that at 50 mM Hepes increased, until the ratio was about 0.7 after 7 weeks.

[2] = biological target: T2, Tre6Pase activity of intact trehalose synthase (Saccharomyces cerevisiae, UniProt P31688); assay: Tre6Pase assay of intact trehalose synthase
T2 construct: Intact trehalose synthase was purified from commercial baker's yeast; made in house; host or cells: commercial baker's yeast (native enzyme purified, not recombinant)
T2 sequence (P31688 1-896): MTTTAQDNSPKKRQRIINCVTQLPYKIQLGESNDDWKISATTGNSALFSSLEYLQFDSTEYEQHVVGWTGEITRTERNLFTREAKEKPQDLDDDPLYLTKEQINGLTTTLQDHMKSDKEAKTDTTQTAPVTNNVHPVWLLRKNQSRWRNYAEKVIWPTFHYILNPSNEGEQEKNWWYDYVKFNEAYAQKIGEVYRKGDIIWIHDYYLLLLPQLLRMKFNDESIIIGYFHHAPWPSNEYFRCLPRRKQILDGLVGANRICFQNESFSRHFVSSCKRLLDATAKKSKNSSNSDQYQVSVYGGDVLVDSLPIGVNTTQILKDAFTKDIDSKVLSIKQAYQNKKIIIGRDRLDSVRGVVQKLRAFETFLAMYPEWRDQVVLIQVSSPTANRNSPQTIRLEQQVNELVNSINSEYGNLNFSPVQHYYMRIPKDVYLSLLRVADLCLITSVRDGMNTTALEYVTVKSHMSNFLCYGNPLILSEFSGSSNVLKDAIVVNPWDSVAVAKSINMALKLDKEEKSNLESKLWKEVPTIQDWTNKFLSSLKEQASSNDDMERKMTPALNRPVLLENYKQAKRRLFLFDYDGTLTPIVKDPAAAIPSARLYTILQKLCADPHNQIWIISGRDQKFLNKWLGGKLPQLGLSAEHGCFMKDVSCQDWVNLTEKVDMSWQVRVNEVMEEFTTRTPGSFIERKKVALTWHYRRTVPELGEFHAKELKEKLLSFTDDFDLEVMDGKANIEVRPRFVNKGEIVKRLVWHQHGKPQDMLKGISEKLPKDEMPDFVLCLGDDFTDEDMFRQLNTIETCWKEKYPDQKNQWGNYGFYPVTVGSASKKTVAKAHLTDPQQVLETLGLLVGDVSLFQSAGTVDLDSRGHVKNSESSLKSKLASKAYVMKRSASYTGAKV
T2 sequence (Q00764 1-495 partner): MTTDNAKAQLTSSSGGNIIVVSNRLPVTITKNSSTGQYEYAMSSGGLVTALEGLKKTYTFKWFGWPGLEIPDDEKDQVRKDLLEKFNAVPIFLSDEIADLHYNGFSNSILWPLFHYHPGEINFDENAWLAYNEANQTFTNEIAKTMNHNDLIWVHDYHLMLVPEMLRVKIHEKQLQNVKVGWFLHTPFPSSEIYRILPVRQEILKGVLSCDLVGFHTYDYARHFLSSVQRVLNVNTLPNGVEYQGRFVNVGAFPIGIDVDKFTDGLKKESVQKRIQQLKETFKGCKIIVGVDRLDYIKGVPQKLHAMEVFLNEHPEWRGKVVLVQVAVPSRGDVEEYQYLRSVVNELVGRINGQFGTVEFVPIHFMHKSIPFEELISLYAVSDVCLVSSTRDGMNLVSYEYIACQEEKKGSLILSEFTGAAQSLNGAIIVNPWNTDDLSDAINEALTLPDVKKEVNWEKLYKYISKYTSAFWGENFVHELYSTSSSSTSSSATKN
T2 sequence (P38427 1-1098 partner): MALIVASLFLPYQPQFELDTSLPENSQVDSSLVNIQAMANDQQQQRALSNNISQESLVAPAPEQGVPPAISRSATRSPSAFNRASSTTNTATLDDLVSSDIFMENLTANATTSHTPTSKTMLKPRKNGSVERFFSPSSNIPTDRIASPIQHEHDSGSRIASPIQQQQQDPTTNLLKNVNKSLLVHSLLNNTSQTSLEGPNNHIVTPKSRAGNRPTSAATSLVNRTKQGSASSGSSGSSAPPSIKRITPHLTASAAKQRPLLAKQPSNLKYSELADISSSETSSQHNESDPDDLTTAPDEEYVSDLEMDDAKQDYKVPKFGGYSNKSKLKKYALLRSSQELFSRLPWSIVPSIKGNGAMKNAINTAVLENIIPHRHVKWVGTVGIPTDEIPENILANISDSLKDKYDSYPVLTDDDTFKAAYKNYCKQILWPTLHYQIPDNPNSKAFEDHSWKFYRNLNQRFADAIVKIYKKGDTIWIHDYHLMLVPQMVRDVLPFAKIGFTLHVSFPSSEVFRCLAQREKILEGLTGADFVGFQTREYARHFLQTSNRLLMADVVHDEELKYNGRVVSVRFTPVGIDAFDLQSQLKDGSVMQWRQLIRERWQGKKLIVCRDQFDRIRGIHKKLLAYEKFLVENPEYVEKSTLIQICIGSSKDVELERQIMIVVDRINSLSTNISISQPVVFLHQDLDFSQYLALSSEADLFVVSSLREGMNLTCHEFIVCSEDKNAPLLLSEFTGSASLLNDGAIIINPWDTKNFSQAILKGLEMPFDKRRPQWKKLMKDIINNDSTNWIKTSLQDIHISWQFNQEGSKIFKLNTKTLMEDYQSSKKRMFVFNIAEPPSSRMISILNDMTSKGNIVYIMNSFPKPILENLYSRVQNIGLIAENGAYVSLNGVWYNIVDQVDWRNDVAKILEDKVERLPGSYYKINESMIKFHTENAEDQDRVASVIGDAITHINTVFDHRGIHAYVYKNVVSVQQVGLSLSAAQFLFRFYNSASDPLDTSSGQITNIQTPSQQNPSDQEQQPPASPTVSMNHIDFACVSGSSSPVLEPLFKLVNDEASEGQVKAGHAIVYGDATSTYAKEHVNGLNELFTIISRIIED
Procedure: (§1) With microbial materials, Tre6Pase and Tre6P synthase standard assays and other kinetic measurements were made as described by Londesborough & Vuorio [(1991) loc. cit.] except that the standard Tre6P synthase assay mixture contained 5 mM F6P unless stated otherwise.
(§2) In one experiment intact trehalose synthase (0.28 Tre6P synthase units, ≈9.4 μg) was incubated with or without 0.5 μg of trypsin at 30° C. in 250 μl of 13 mM HEPES pH 7.0 containing 1 mM MgCl2, 0.5 mM EDTA, 0.5 mM dithiothreitol, 0.2 M NaCl and 0.5 mM benzamidine. Its Tre6P synthase activity was determined at intervals using standard assay mixtures (containing 5 mM F6P) containing no or 4 mM K phosphate pH 6.8, and samples were prepared for SDS-PAGE analysis immediately before and 48 min after addition of the trypsin.
Intact trehalose synthase was prepared as in Example 1. Kinetic assays were done at 30° C. as described in General Methods and Materials.

[3] = biological target: T3, Tre6P synthase activity of intact trehalose synthase (Saccharomyces cerevisiae, UniProt Q00764); assay: Tre6P synthase assay of intact trehalose synthase; conditions: 11 μg trypsin, 25° C., after first 30 min (26% before)
T3 construct: Intact trehalose synthase was purified from commercial baker's yeast; made in house; host or cells: commercial baker's yeast (native enzyme purified, not recombinant)

[4] = biological target: T3, Tre6P synthase activity of intact trehalose synthase; assay: Tre6P synthase assay of intact trehalose synthase; conditions: 0.5 μg trypsin, 30° C., first 10 min
Procedure: as §1
as §2, with “Removal of the N-terminal 325 or so amino acids from the 123 kDa long chain of intact trehalose synthase by treatment with trypsin in vitro produces an enzyme with catalytic properties like those of the truncated enzyme purified by Londesborough & Vuorio [(1991) loc. cit.]. In” for “In”
Truncated trehalose synthase was prepared as described by Londesborough & Vuorio [(1991) loc. cit.] and contained the 57 kDa short chain and 86 and 93 kDa fragments of the long chain. Intact trehalose synthase was prepared as in Example 1. Kinetic assays were done at 30° C. as described in General Methods and Materials.

Row | Compound | hydrolysis by isolated 99 kDa polypeptide [1] | rate of hydrolysis relative to 0.5 mM trehalose-6-phosphate ([2]; 1 mM G6P, phosphate or Hepes buffer) | loss of Tre6Pase activity ([2]; limited treatment with trypsin, 30° C.) | Tre6P synthase activity in absence of F6P and presence of 10 mM phosphate, % of standard activity [3] [%] | increase in Tre6P synthase activity measured at 4 mM phosphate [4] [fold]
1 | O=P(O)(O)OC[C@H]1OC(O)[C@H](O)[C@@H](O)[C@@H]1O (some centres unmarked) [Transformant G6P, Glucose 6-phosphate] | not hydrolyzed | less than 1% | – | – | –
2 | trypsin | – | – | about 50% | 73 | 4
